Test results from patent US20220348617A1 (H LEE MOFFITT CANCER CENTER AND RESEARCH INSTITUTE, published 2022).

Columns and labels:
Notch1 EGF domains 6-13 = target: T1, Notch1 EGF domains 6-13 (human, UniProt P46531 218-526); experiment: SPR, Notch immobilised, DLL4 flowed
T1 construct: domain: EGF domains 6-13; Immobilised on a streptavidin sensor chip; the other passages say only 'Notch 1'
Procedure: Binding affinities between DLL4 variants and Notch receptor subtypes were determined by surface plasmon resonance (SPR) (FIG. 7). Notch1 EGF domains 6-13, Notch2, EGF domains 6-13, or Notch 3 EGF domains 5-12 were immobilized on a sensor chip and various concentrations of DLL4 ligands were injected over the surface. A co-culture assay was used to monitor the inhibition of Notch signaling by DLL4.v3 (FIG. 8). A fluorescent Notch1 reporter cell line (CHO^N1) was co-cultured with 293T cells expressing wild-type human DLL4 (293TDLL4) in 96-well plates to activate signaling. This value was normalized to 100% Notch1 activation. A reduction in Notch1 activation was observed upon the addition of increasing concentrations of DLL4.v3 (20 nM, 200 nM, 2000 nM) to the co-cultures.

Notch 3 EGF domains 5-12 = target: T2, Notch 3 EGF domains 5-12 (human, UniProt Q9UM47 197-505); experiment: SPR, Notch on streptavidin chip, DLL4 flowed
T2 construct: domain: EGF domains 5-12; the other passages say only 'Notch 3'
T2 sequence (looked up): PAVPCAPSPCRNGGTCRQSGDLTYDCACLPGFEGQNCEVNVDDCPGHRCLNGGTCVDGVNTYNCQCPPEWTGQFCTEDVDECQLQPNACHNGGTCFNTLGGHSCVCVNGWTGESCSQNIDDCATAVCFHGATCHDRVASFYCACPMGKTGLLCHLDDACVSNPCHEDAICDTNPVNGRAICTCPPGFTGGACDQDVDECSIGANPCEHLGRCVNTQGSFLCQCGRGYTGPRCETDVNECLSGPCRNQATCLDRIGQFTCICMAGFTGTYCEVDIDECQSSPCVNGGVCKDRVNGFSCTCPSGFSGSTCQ

binding result (Notch1 EGF domains 6-13): binds
binding result (Notch 3 EGF domains 5-12): binds
B1: wildtype (WT) human DLL4 (ligand)
chain: SGVFQLQLQEFINERGVLASGRPCEPGCRTFFRVCLKHFQAVVSPGPCTFGTVSTPVLGTNSFAVRDDSSGGGRNPLQLPFNFTWPGTFSLIIEAWHAPGDDLRPEALPPDALISKIAIQGSLAVGQNWLLDEQTSTLTRLRYSYRVICSDNYYGDNCSRLCKKRNDHFGHYVCQPDGNLSCLPGWTGEYCQQPICLSGCHEQNGYCSKPAECLCRPGWQGRLCNECIPHNGCRHGTCSTPWQCTCDEGWGGLFCDQDLNYCTHHSPCKNGATCSNSGQRSYTCTCRPGYTGVDCE
notes: Soluble protein flowed over immobilised Notch in SPR; also called wild-type DLL4
